Marks after values point to notes of the source that are not given here.
How the values were obtained:
NLuc-CXCR3 [1] = biological target: T1, NLuc-CXCR3 (Homo sapiens, UniProt P49682); experiment: Multiplex NanoBRET binding, mixed NLuc-CXCR3 and NLuc-CXCR4 membranes, read at 520 nm (CXCL10-AZD488); conditions: mixed (1:1) NLuc-CXCR3 and NLuc-CXCR4 membranes; both CXCL10-AZD488 and CXCL12-AZD647, 10 nM each
T1 construct: 5HT3a signal peptide (N); expressed in transfected cells; host or cells: HEK293T, transient; membrane preparation
T1 sequence (P49682 2-368 limits assumed): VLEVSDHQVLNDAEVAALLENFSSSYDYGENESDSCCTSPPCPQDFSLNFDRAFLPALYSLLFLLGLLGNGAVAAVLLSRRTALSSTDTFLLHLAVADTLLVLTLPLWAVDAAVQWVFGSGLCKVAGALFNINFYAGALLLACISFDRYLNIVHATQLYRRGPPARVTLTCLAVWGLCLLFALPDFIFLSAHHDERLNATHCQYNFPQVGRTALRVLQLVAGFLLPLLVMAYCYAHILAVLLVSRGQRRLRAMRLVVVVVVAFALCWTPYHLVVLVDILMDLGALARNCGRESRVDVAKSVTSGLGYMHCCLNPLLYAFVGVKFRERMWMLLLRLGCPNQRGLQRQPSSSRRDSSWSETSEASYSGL
Experimental: (§1) HEK293T cells (2 × 10^6) were seeded in 10 cm^2 culture dishes. After 24 h, the cells were transfected with 0.25 µg of plasmid DNA encoding human NLuc-ACKR3, NLuc-CXCR4 or NLuc-CXCR3, and 4.75 µg of pcDEF3 plasmid DNA using 30 µg of linear PEI. After two days, the cells were collected in PBS and centrifuged at 2700 rpm at 4 °C. Next, the cell pellet was resuspended in ice-cold membrane buffer (15 mM of Tris, 0.3 mM of EDTA, 2 mM of MgCl2, pH 7.4 at 4 °C) and homogenized by plunging the pestle using 10 strokes at 1100 rpm. The cell homogenates were exposed to two freeze and thaw cycles using liquid nitrogen and were centrifuged at 25,000 rpm. The pellet was resuspended in Tris-sucrose buffer (20 mM of Tris, 250 mM of Sucrose, pH 7.4 at 4 °C). Finally, cell membranes were homogenized using a 23-gauge needle, followed by snap-freezing with liquid nitrogen and then stored at −80 °C.
(§2) NanoBRET was measured after 1 h of incubation at room temperature, as described above.
For saturation binding experiments, the KD was obtained using one-site total and non-specific binding. For binding experiments, pIC50 values were obtained using a one-site pIC50 model. The equilibrium dissociation constants (Ki) of unlabeled ligands were subsequently calculated using the Cheng−Prusoff equation. […]

NLuc-CXCR4 [2] = biological target: T2, NLuc-CXCR4 (Homo sapiens, UniProt P61073); experiment: Multiplex NanoBRET binding, mixed NLuc-CXCR3 and NLuc-CXCR4 membranes, read at 640 nm (CXCL12-AZD647); design: 5HT3a signal peptide (N); host or cells: HEK293T, transient; membrane preparation; conditions: mixed (1:1) NLuc-CXCR3 and NLuc-CXCR4 membranes; both CXCL10-AZD488 and CXCL12-AZD647, 10 nM each
Experimental: as §1, with “After 24 h, the cells were transfected with 0.25 µg of plasmid DNA encoding human NLuc-ACKR3, NLuc-CXCR4 or NLuc-CXCR3, and 4.75 µg of pcDEF3 plasmid DNA using 30 µg of linear PEI.” left out
(§3) For saturation binding experiments, the KD was obtained using one-site total and non-specific binding. For binding experiments, pIC50 values were obtained using a one-site pIC50 model. The equilibrium dissociation constants (Ki) of unlabeled ligands were subsequently calculated using the Cheng−Prusoff equation. (1) […] where [L] is the concentration of the labeled ligand and KD is the equilibrium dissociation constant of the labeled ligand.

NLuc-CXCR3 [3] = biological target: T1, NLuc-CXCR3; experiment: NanoBRET competition binding versus CXCL10-AZD488 on NLuc-CXCR3 membranes only (520 nm)
Experimental: as §1, §2, §3

NLuc-ACKR3 [4] = biological target: NLuc-ACKR3 (Homo sapiens, UniProt P25106); experiment: NanoBRET competition binding versus AZDye-labeled CXCL12 on NLuc-ACKR3 membranes; design: 5HT3a signal peptide (N); host or cells: HEK293T, transient; membrane preparation
Experimental: as §1, with “After 24 h, the cells were transfected with 0.25 µg of plasmid DNA encoding human NLuc-ACKR3, NLuc-CXCR4 or NLuc-CXCR3, and 4.75 µg of pcDEF3 plasmid DNA using 30 µg of linear PEI.” left out
All experiments were analyzed using Graphpad Prism 9.0. For binding experiments, pIC50 values were obtained using a one-site pIC50 model using global fitting with shared non-specific binding values.
as §3

CXCR4 = CXCR4 (Homo sapiens, UniProt P61073); experiment: CXCR4-mediated inhibition of isoprenaline-induced intracellular cAMP (FRET-based EPAC sensor) in HEK293 cells; format: cell-based; conditions: HEK293 cells stably expressing CXCR4 and EPAC sensor; 100 nM isoprenaline; mean ± SD
Experimental: Human embryonic kidney 293 cells stably co-expressing CXCR4 and the FRET-based EPAC sensor with mCerulean and mCitrine as a FRET pair were kindly provided by Dr. M. Zimmermann (Interax Biotech, Zurich, Switzerland), and were cultured in DMEM supplemented with 10% FBS and penicillin ([…]), streptomycin ([…]), zeocin (0.06 mg/mL) and G418 (0.6 mg/mL) at 37 °C with 5% CO2.
HEK293 cells stably expressing CXCR4 and a FRET-based EPAC sensor were seeded into a 96-well black plate (0.5 × 10^6/well). […] Fluorescence was measured using the following parameters: excitation at 430–15 nm, and emission at 530–20 and 480–20 nm using the CLARIOstar Plus (BMG Labtech, Ortenberg, Germany). The FRET ratio was calculated by dividing the signal of the acceptor at 530 nm by the donor signal at […].

NLuc-CXCR4 [5] = biological target: T2, NLuc-CXCR4; experiment: NanoBRET saturation binding to HEK293T membranes expressing NLuc-CXCR4; design: 5HT3a signal peptide (N); host or cells: HEK293T, transient; membrane preparation; conditions: non-specific binding with 10 µM IT1t, mean ± SD
Experimental: as §1, with “After 24 h, the cells were transfected with 0.25 µg of plasmid DNA encoding human NLuc-ACKR3, NLuc-CXCR4 or NLuc-CXCR3, and 4.75 µg of pcDEF3 plasmid DNA using 30 µg of linear PEI.” left out
as §3

NLuc-CXCR4 [6] = biological target: T2, NLuc-CXCR4
[7] = biological target: HA-tagged ACKR3 C-terminally fused to SmBit (UniProt P25106)
NLuc-CXCR4 [8] = biological target: T2, NLuc-CXCR4; experiment: FRET or BRET; NanoBRET competition binding against CXCL12-AZD647 (0.3 nM on NLuc-ACKR3, 10 nM on NLuc-CXCR4 HEK293T membranes) with increasing unlabeled ligand; HBSS with 0.2% BSA; 1 h at room temperature; Ki by Cheng-Prusoff
NLuc-CXCR4 [9] = biological target: T2, NLuc-CXCR4; experiment: FRET or BRET; NanoBRET competition binding against CXCL12-AZD546 (0.3 nM on NLuc-ACKR3, 10 nM on NLuc-CXCR4 HEK293T membranes) with increasing unlabeled ligand; HBSS with 0.2% BSA; 1 h at room temperature; Ki by Cheng-Prusoff
NLuc-CXCR4 [10] = biological target: T2, NLuc-CXCR4; experiment: FRET or BRET; NanoBRET competition binding against CXCL12-AZD594 (0.3 nM on NLuc-ACKR3, 10 nM on NLuc-CXCR4 HEK293T membranes) with increasing unlabeled ligand; HBSS with 0.2% BSA; 1 h at room temperature; Ki by Cheng-Prusoff
NLuc-CXCR4 [11] = biological target: T2, NLuc-CXCR4; experiment: FRET or BRET; NanoBRET competition binding against CXCL12-AZD488 (0.3 nM on NLuc-ACKR3, 10 nM on NLuc-CXCR4 HEK293T membranes) with increasing unlabeled ligand; HBSS with 0.2% BSA; 1 h at room temperature; Ki by Cheng-Prusoff
NLuc-ACKR3 [12] = biological target: T3, NLuc-ACKR3 (human, UniProt P25106 1-362); experiment: FRET or BRET; NanoBRET competition binding against CXCL12-AZD594 (0.3 nM on NLuc-ACKR3, 10 nM on NLuc-CXCR4 HEK293T membranes) with increasing unlabeled ligand; HBSS with 0.2% BSA; 1 h at room temperature; Ki by Cheng-Prusoff; conditions: one partner purified
T3 construct: ACKR3 (CXCR7), human; NLuc is preceded by the 5HT3a signal peptide and fused via a Gly-Ser linker (BamHI site) to ACKR3, in pcDNA3.1; also called CXCR7; source: HEK293T, transiently transfected, membrane preparation; not shown: NLuc, N-terminal, kept

NLuc-ACKR3 [13] = biological target: T3, NLuc-ACKR3; experiment: FRET or BRET; NanoBRET competition binding against CXCL12-AZD647 (0.3 nM on NLuc-ACKR3, 10 nM on NLuc-CXCR4 HEK293T membranes) with increasing unlabeled ligand; HBSS with 0.2% BSA; 1 h at room temperature; Ki by Cheng-Prusoff; conditions: one partner purified
NLuc-ACKR3 [14] = biological target: T3, NLuc-ACKR3; experiment: FRET or BRET; NanoBRET competition binding against CXCL12-AZD488 (0.3 nM on NLuc-ACKR3, 10 nM on NLuc-CXCR4 HEK293T membranes) with increasing unlabeled ligand; HBSS with 0.2% BSA; 1 h at room temperature; Ki by Cheng-Prusoff; conditions: one partner purified
NLuc-ACKR3 [15] = biological target: T3, NLuc-ACKR3; experiment: FRET or BRET; NanoBRET competition binding against CXCL12-AZD546 (0.3 nM on NLuc-ACKR3, 10 nM on NLuc-CXCR4 HEK293T membranes) with increasing unlabeled ligand; HBSS with 0.2% BSA; 1 h at room temperature; Ki by Cheng-Prusoff; conditions: one partner purified
[16] = 0.3 nM probe, Cheng-Prusoff, mean ± SD

CC1(C)CN2C(CSC(=NC3CCCCC3)NC3CCCCC3)=CSC2=N1 [IT1t]
pKi, Multiplex at 520 nm (NLuc-CXCR3 [1]): no clear competition binding curve was detected

CCNC(=O)c1cnc(N2CCN(C3CCN(Cc4ccc(Cl)cc4)CC3)[C@@H](CC)C2)c(Cl)c1 [VUF11211]
pKi, Multiplex at 640 nm (NLuc-CXCR4 [2]): no clear competition binding curve was detected
pKi, CXCR3 Only at 520 nm (NLuc-CXCR3 [3]; 10 nM CXCL10-AZD488, NLuc-CXCR3 membranes only): 8.8 ± 0.2
fold higher than the Ki from competition binding with [125I]-CXCL11 (NLuc-CXCR3 [3]; comparison with ref 23): 10 fold
fold lower than the Ki from competition binding with [3H]-VUF11211 (NLuc-CXCR3 [3]; comparison with ref 23): 1.5 fold
pKi, Multiplex at 520 nm (NLuc-CXCR3 [1]): 8.8 ± 0.1

COc1cc(C(=O)N(CCC2CCCN2C)CC(C)=Cc2ccccc2F)cc(OC)c1OC (centres unmarked) [VUF15485]
Binding affinity (pKi) for NLuc-ACKR3, probe CXCL12-AZD488 (NLuc-ACKR3 [4]; [16]): 7.9 ± 0.1 ^b
Binding affinity (pKi) for NLuc-ACKR3, probe CXCL12-AZD546 (NLuc-ACKR3 [4]; [16]): 7.9 ± 0.1
Binding affinity (pKi) for NLuc-ACKR3, probe CXCL12-AZD594 (NLuc-ACKR3 [4]; [16]): 8.1 ± 0.2
Binding affinity (pKi) for NLuc-ACKR3, probe CXCL12-AZD647 (NLuc-ACKR3 [4]; [16]): 8.2 ± 0.1
fold lower affinity for ACKR3 when tested in competition with CXCL12-AZD488 (NLuc-ACKR3 [4]; compared with the other three probes): 5 fold

CXCL12-AZD546: CXCL12 tagged at the C-terminus with fluorescent AZDye 546 by click chemistry
cAMP by CXCR4 (pEC50) (CXCR4): 8.6 ± 0.3
pKD for CXCR4 (NLuc-CXCR4 [5]): 8.0 ± 0.0

CXCL12-AZD594: CXCL12 tagged at the C-terminus with fluorescent AZDye 594 by click chemistry
cAMP by CXCR4 (pEC50) (CXCR4): 8.9 ± 0.2
pKD for CXCR4 (NLuc-CXCR4 [5]): 7.6 ± 0.1

CXCL12-AZD647: CXCL12 tagged at the C-terminus with fluorescent AZDye 647 by click chemistry
pKD for CXCR4 (NLuc-CXCR4 [5]): 7.9 ± 0.1

Human recombinant CXCL12 (unlabeled) (from UniProt P48061 22-93) (ligand)
pEC50 of inhibition of isoprenaline-induced cAMP (FRET-based EPAC sensor) in HEK293 cells stably expressing CXCR4 (not the NLuc fusion) (NLuc-CXCR4 [6]): 9.7
pEC50 of β-arrestin2 recruitment to ACKR3 (NanoBiT complementation, HEK293T cells) [7]: 8
pKi (NLuc-CXCR4 [8]): 8.4
pKi (NLuc-CXCR4 [9]): 9
pKi (NLuc-CXCR4 [10]): 8.2
pKi (NLuc-CXCR4 [11]): 8.4

B1: CXCL11 (unlabeled) (ligand, UniProt O14625 22-94, looked up)
chain: FPMFKRGRCLCIGPGVKAVKVADIEKASIMYPSNNCDKIEVIITLKENKGQRCLNPKSKQARLIIKKVERKNF
notes: CXCL11, unlabeled chemokine
pKi (NLuc-ACKR3 [12]): 9.5
pKi (NLuc-ACKR3 [13]): 9.2
pKi (NLuc-ACKR3 [14]): 9.4
pKi (NLuc-ACKR3 [15]): 9.4
